Test results: US20110086806A1 (published 2011)
Substitutions are numbered along the chain they refer to. Numbers in names are those of the source. Blank lines part the entries; values can stand above or below the binder they belong to.

Target: T1, recombinant human IL-23R/Fc chimera (R&D Systems) (human, UniProt Q5VWK5 24-355)
T1 construct: Bought; also called rhIL23RFc
T1 sequence (looked up): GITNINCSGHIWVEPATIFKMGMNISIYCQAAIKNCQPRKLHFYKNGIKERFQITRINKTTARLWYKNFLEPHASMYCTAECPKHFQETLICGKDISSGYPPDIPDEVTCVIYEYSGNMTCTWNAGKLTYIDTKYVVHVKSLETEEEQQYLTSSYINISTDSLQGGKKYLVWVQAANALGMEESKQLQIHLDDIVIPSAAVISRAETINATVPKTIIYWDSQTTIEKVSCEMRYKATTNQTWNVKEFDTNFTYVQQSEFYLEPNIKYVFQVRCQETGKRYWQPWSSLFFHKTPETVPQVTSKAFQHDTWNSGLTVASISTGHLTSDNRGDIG
Assay: SPR
Method: A Biacore 3000 biosensor (GE Healthcare) was used to evaluate the interaction of human IL-23R and receptor binders. Immobilization of an anti-human IgG Fc antibody (GE Healthcare) to the CM5 chip (GE Healthcare) was performed using standard amine coupling chemistry, and this modified surface was used to capture a recombinant human IL-23R/Fc fusion protein (R&D Systems). A low-density receptor surface, less than 200 RU, was used for all of the analyses. ATRIMER™ polypeptide complex dilutions (1-500 nM) were injected over the IL-23R surface at 30 μl/min and kinetic constants were derived from the sensorgram data using the Biaevaluation software (version 3.1, GE Healthcare). Data collection was 3 minutes for the association and 5 minutes for dissociation. The anti-human IgG surface was regenerated with a 30s pulse of 3M magnesium chloride. All sensorgrams were double-referenced against an activated and blocked flow-cell as well as buffer injections.

Ka: 2.1e+08 M⁻¹
Kd: 4.76 nM
koff: 0.000751 s⁻¹
kon: 158000 M⁻¹ s⁻¹
B1: 001-69.4G8 ATRIMER complex, mammalian-cell produced (designed binder, not shown: small tags and cut ends)
chain: EPPTQKPKKIVNAKKDVVNTKMFEELKSRLDTLAQEVALLKEQQALQTVCLKGTKVHMKCFLAFTQTKTFHEASEDCISRGGTLSTPQTGSENDALYEYLRQSVGNEAEIWLGLNGSRRSGVWVDMTGARIAYKNWETEITAQPDGGFGVFGENCAVLSGAANGKWFDKRCRDQLPYICQFGIV
modifications: Homotrimer of this chain (ATRIMER complex); produced in HEK293 cells, glycosylation possible.
notes: Mammalian-cell produced material; also called 4G8 m; 4G8 TN m

Ka: 4.47e+08 M⁻¹
Kd: 2.24 nM
koff: 0.000545 s⁻¹
kon: 244000 M⁻¹ s⁻¹
B2: 056-41.B12F ATRIMER complex (designed binder)
chain: B1 chain with R118V, G121A, V122T, F148Y
modifications: Homotrimer of this chain (ATRIMER complex).
notes: not shown: A possible extra N-terminal Ser from the ompA junction is left out

Ka: 2.19e+08 M⁻¹
Kd: 4.57 nM
koff: 0.0007 s⁻¹
kon: 153000 M⁻¹ s⁻¹
B3: 001-87.A5F ATRIMER complex (designed binder)
chain: B1 chain with R118V, G121A, V122T, V150Y
modifications: Homotrimer of this chain (ATRIMER complex).
notes: also called Atrimer A5F; not shown: A possible extra N-terminal Ser from the ompA junction is left out

Ka: 1.24e+08 M⁻¹
Kd: 8.08 nM
koff: 0.000409 s⁻¹
kon: 50600 M⁻¹ s⁻¹
B4: 001-87.A4A ATRIMER complex (designed binder)
chain: EPPTQKPKKIVNAKKDVVNTKMFEELKSRLDTLAQEVALLKEQQALQTVCLKGTKVHMKCFLAFTQTKTFHEASEDCISRGGTLSTPQTGSENDALYEYLRQSVGNEAEIWLGLNWTLAKNLWVDMTGARIAYKNWETEITAQPDGGLFGRGENCAVLSGAANGKWFDKRCRDQLPYICQFGIV
notes: not shown: C-terminal tag: His/Myc (pANA4) or HA-StrepII (pANA10)

Ka: 1.2e+08 M⁻¹
Kd: 8.34 nM
koff: 0.000483 s⁻¹
kon: 57900 M⁻¹ s⁻¹
B5: 001-89.C3C ATRIMER complex (designed binder)
chain: B1 chain with G116A, S117N, S120R, G121T, V122M, F148M, F151W
notes: as for B4

Ka: 1.94e+08 M⁻¹
Kd: 5.15 nM
koff: 0.000478 s⁻¹
kon: 92800 M⁻¹ s⁻¹
B6: 056-41.B9B ATRIMER complex (designed binder)
chain: B1 chain with G116A, S117P, R118P, R119D, S120L, V122L, F148W, F151W
notes: as for B4

Ka: 6.76e+06 M⁻¹
Kd: 148 nM
koff: 0.00419 s⁻¹
kon: 28300 M⁻¹ s⁻¹
B7: 001-69.4D4 monomeric CTLD (designed binder)
chain: ALQTVCLKGTKVHMKCFLAFTQTKTFHEASEDCISRGGTLSTPQTGSENDALYEYLRQSVGNEAEIWLGLNGSVRGRTWVDMTGARIAYKNWETEITAQPDGGIGVWGENCAVLSGAANGKWFDKRCRDQLPYICQFGIV
notes: C-terminal tag not specified

Ka: 4.12e+06 M⁻¹
Kd: 243 nM
koff: 0.00571 s⁻¹
kon: 23500 M⁻¹ s⁻¹
B8: 001-69.4F5 monomeric CTLD (designed binder)
chain: ALQTVCLKGTKVHMKCFLAFTQTKTFHEASEDCISRGGTLSTPQTGSENDALYEYLRQSVGNEAEIWLGLNVLGWRREWVDMTGARIAYKNWETEITAQPDGGLVMPMENCAVLSGAANGKWFDKRCRDQLPYICQFGIV
notes: C-terminal tag not specified; not shown: Also the vector's N-terminal AGGGS after the pelB signal

Ka: 5.39e+06 M⁻¹
Kd: 186 nM
koff: 0.00741 s⁻¹
kon: 39900 M⁻¹ s⁻¹
B9: 001-69.3C2 monomeric CTLD (designed binder)
chain: B7 chain with G72T, S73N, R75T, G76R, R77T, T78L, I104L
notes: C-terminal tag not specified

Ka: 2.82e+06 M⁻¹
Kd: 355 nM
koff: 0.0161 s⁻¹
kon: 45400 M⁻¹ s⁻¹
B10: 001-69.4E5 monomeric CTLD (designed binder)
chain: B7 chain with S73N, V74P, R75S, R77S, T78V, I104Y
notes: as for B8

Ka: 1.83e+07 M⁻¹
Kd: 54 nM
koff: 0.00783 s⁻¹
kon: 143000 M⁻¹ s⁻¹
B11: 001-69.4G8 monomeric CTLD (designed binder)
chain: B7 chain with V74R, G76S, R77G, T78V, I104F, W107F
notes: C-terminal tag not specified; not shown: C-terminal tag: 6xHis (pANA1), HA-His (pANA3) or HA-StrepII (pANA12)
